Measured values taken from US20100028347A1 (Eli Lilly, published 2010).

Key:
[1] = target: T1, recombinant human VEGFR-1 Fc (human, UniProt P17948-2 27-687, limits assumed); test: ELISA: antibody dilutions on plate coated with 1 µg/ml human VEGFR-1 Fc, HRP secondary, O.D. 450
T1 construct: Bought from R&D Systems; also called rhuVEGFR-1 Fc; HuVEGFR-I-Fc; not shown: Fc part
Description: (§1) To determine the specificity of an anti-VEGFR-1 monoclonal antibody to human VEGFR-I, purified antibodies 18F1 were tested in an ELISA-based assay. One μg/ml of recombinant human VEGFR-I Fc, mouse VEGFR-I Fc, mouse VEGFR-2 Fc, or human VEGFR-2 alkaline phosphatase was coated with PBS in a 96-well microtiter plates at 4° C. over night. After wash, the receptor coated plates were blocked with PBS containing 5% Dry Milk and 0.05% Tween 20. Serial dilutions of primary antibody 18F1 to human VEGFR-I, MF1 to mouse VEGFR-I, IC1 1 to human VEGFR-2, or DClOl to mouse VEGFR-2 were incubated in the receptor-coated plates for 30 minutes. After wash secondary anti-primary HRP conjugate antibodies was incubated in the plates for 30 minutes. Plates were washed and incubated with the substrate TMB (3,3′,5,5′-tetra-methylbenzidine) for color development. The absorbance at 450 nm was read as OD values for quantification of binding activity of antibodies. Data were analyzed using a GraphPad Prism Software.

[2] = target: T2, native VEGFR-1 expressed on the cell surface (human, UniProt P17948 27-1338); test: cell-based or functional assay
[3] = target: T3, soluble recombinant human VEGFR-1 alkaline phosphatase (human, UniProt P17948 27-758); test: ELISA, purified antibody on rhuVEGFR-1 AP coated plate (given as ED50)
T3 construct: Made in house in stably transfected cells; also called rhuVEGFR-I AP; VEGFR-I AP; not shown: alkaline phosphatase fusion partner
Description: (§2) Specifically, hybridoma supernatants or purified antibodies were diluted in PBS with 5% FBS and 0.05% Tween 20 (ELISA buffer) and incubated in rhuVEGFR-I AP or AP coated 96-well microtiter plates for 30 minutes. Plates were washed with the ELISA buffer and incubated with goat anti-mouse IgG-horseradish peroxidase (HRP) conjugate (BioSource International, Camarillo, Calif.) for 30 minutes. TMB (3,3′,5,5′-tetra-methylbenzidine) substrate (Kierkegaard and Perry Lab, Inc., Gaithersburg, Md.) was used for color development following the manufacturer's instruction. The absorbance at 450 nanometers (nm) was read for quantification of binding activity of antibodies. For identification of the hybridomas producing anti-VEGFR-I antibodies, hybridoma supernatants were preincubated with VEGFR-I AP for 1 hour. The mixtures were incubated with the ELISA buffer in VEGF or P1GF coated 96-well microtiter plates for 1 hour. PNPP (p-nitrophenyl phosphate) substrate for AP was used for color development following the manufacturer's instruction. The absorbance at 405 nm was read for quantification of VEGFR-I binding to VEGF or P1GF. Optical density (OD) values were read on a microtiter plate reader (Molecular Devices Corp., Sunnyvale, Calif.). ED50 and IC50 of the antibodies were analyzed using GraphPad Prism 3 software (GraphPad Software, Inc., San Diego, Calif.).

[4] = target: T3, soluble recombinant human VEGFR-1 …; test: blocking ELISA: antibody preincubated with VEGFR-1 AP, binding to VEGF coated plate
Description: as §2

[5] = target: T2, native VEGFR-1 expressed on the cell …; test: cell-based or functional assay; remark: listed apart in the source
mouse VEGFR-1-AP = target: T4, mouse VEGFR-1-AP (mouse, UniProt P35969 23-759); test: ELISA: plate coated with mouse VEGFR-1-AP 100 ng/well, goat anti-human kappa-HRP, O.D. 450
T4 construct: From ImClone Systems; also called mouse VEGFR-I-AP; not shown: alkaline phosphatase fusion partner; not described
T4 sequence (looked up): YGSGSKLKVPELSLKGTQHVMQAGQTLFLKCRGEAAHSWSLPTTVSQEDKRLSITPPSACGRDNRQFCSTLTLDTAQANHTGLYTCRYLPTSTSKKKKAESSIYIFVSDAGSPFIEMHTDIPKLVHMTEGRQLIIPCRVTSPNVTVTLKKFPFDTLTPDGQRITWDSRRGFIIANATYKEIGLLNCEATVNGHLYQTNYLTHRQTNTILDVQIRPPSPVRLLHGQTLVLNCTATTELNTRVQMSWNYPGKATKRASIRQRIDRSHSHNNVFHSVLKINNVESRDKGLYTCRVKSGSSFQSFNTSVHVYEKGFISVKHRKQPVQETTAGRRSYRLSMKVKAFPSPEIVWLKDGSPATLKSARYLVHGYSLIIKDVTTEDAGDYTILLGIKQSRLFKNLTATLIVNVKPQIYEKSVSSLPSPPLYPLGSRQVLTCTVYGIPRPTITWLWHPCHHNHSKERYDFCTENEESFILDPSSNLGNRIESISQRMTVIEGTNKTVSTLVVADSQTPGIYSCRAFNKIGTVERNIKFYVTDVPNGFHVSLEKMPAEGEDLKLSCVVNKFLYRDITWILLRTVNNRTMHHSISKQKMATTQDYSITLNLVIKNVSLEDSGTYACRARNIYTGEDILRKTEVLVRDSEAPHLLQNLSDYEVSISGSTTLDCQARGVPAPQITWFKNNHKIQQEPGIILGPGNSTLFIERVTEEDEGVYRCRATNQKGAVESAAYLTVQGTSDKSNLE

[6] = target: T3, soluble recombinant human VEGFR-1 …; test: blocking ELISA: antibody preincubated with VEGFR-1 AP, binding to PlGF coated plate
Description: as §2

[7] = target: T5, recombinant extracellular domain of VEGFR-1 (UniProt P17948 27-758, limits assumed); test: SPR, BIAcore 2000, VEGFR-1 extracellular domain immobilised at low density
T5 construct: extracellular domain
Description: Affinities of anti-VEGFR-1 antibody clones 6F9, 13 G12, 15F1 1, 18F1 were determined by plasmon resonance technology using BIAcore 2000 (Pharmacia, Piscataway, N.J.) according to the procedures provided by the manufacturer. Kinetic analyses of the antibodies were performed by immobilization of recombinant extracellular domain of VEGFR-I onto a sensor surface at a low density. The (kₒₙ) and dissociation (kₒ_{^ff}) rates were determined using the BIAevaluation 2.1 software provided by the manufacturer.

mouse VEGFR-2 Fc = target: T6, mouse VEGFR-2 Fc (mouse, UniProt P35918 20-762, limits assumed); test: ELISA: antibody dilutions on plate coated with 1 µg/ml mouse VEGFR-2 Fc, HRP secondary, O.D. 450
T6 construct: not shown: Fc part; not described
Description: as §1

T2 sequence (P17948 27-1338): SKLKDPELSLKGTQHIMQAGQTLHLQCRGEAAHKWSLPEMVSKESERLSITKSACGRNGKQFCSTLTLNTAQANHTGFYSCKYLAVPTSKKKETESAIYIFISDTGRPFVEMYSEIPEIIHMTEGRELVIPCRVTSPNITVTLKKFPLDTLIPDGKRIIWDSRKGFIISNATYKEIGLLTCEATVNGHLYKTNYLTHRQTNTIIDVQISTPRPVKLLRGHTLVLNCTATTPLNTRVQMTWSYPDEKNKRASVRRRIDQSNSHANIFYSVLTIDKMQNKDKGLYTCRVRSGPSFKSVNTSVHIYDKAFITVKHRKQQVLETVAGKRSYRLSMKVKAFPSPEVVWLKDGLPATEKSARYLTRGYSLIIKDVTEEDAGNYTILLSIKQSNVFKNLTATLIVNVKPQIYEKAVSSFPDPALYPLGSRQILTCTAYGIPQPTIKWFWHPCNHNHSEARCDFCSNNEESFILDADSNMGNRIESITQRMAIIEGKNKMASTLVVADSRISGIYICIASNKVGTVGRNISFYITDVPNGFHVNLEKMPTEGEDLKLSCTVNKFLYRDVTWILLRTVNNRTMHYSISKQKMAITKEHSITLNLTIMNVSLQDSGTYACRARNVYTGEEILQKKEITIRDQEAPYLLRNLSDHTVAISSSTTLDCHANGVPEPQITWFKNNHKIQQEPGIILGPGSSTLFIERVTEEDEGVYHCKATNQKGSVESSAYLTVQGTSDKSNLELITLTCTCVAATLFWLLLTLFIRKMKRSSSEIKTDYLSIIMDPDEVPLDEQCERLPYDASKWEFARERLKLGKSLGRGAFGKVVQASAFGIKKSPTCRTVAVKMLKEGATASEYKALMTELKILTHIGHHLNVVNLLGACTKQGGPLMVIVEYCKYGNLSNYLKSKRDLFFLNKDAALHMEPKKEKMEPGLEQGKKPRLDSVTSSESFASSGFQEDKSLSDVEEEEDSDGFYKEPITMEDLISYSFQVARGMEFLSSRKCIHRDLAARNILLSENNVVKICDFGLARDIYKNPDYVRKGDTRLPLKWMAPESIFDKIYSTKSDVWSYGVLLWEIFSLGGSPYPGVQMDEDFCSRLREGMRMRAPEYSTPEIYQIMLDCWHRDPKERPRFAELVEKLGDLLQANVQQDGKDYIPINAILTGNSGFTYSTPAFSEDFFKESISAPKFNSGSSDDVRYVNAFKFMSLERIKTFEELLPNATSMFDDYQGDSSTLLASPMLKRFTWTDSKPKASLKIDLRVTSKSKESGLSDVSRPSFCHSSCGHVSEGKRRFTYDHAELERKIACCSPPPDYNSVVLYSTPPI
T3 sequence (P17948 27-758): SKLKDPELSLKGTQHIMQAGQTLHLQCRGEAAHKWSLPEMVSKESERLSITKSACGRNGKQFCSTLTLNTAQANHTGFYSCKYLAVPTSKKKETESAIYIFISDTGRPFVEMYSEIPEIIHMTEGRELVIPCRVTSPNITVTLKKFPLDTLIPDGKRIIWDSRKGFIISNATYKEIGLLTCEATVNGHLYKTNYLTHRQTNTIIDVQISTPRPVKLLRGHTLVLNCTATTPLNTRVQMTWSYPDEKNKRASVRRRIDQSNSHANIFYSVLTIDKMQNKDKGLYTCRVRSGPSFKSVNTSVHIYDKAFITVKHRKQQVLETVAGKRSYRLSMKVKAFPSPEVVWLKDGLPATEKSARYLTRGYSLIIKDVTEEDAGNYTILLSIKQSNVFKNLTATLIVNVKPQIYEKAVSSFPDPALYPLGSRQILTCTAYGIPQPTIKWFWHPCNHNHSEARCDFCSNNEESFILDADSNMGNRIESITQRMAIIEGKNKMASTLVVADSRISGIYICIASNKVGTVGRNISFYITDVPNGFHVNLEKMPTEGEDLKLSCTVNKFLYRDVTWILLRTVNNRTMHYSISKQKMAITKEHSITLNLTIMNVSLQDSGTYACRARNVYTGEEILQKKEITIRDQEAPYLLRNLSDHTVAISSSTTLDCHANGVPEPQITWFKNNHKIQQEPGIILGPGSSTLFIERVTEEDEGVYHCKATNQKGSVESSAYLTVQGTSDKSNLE
T5 sequence (P17948 27-758 limits assumed): as the sequence (P17948 27-758) above
T1 sequence (P17948 other isoform, or with tags, fused parts or gaps limits assumed): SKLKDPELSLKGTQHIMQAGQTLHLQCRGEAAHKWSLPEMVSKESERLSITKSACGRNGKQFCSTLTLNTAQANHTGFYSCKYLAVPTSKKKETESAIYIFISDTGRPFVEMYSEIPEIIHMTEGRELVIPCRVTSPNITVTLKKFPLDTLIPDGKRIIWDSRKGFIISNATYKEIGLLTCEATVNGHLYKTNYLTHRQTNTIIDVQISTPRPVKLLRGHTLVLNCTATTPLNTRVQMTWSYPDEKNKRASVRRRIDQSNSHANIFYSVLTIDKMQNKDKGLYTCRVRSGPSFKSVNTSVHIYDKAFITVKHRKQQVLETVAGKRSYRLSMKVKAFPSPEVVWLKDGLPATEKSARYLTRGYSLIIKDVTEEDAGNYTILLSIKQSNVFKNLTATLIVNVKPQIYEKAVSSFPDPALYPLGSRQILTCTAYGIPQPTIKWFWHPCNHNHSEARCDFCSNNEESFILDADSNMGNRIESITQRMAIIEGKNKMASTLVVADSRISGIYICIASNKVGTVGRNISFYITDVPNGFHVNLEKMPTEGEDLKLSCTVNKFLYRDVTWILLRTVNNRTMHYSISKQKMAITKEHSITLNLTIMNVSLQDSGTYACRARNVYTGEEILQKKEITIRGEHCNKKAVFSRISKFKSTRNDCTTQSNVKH
T6 sequence (P35918 20-762 limits assumed): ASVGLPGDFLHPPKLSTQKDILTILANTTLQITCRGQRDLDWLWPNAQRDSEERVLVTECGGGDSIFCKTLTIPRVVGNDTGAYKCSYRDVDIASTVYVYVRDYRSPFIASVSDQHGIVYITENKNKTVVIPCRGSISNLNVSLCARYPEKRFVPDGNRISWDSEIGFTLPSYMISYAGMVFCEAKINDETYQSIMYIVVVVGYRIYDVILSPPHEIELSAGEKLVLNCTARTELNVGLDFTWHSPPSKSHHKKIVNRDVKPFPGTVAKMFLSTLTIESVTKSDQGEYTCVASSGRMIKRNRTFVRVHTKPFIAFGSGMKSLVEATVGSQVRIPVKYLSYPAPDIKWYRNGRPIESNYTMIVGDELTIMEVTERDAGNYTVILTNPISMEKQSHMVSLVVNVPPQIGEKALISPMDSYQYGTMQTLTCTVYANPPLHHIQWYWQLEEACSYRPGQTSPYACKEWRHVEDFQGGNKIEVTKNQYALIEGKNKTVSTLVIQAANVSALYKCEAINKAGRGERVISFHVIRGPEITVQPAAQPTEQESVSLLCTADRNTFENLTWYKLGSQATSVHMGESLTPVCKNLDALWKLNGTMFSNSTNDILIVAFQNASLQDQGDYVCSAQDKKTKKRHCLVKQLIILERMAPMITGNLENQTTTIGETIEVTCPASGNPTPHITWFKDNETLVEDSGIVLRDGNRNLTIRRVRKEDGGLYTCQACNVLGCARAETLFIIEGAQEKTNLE

B1: anti-human VEGFR-1 antibody 18F1 (antibody, V domains shown)
VH: QAQVVESGGGVVQSGRSLRLSCAASGFAFSSYGMHWVRQAPGKGLEWVAVIWYDGSNKYYADSVRGRFTISRDNSENTLYLQMNSLRAEDTAVYYCARDHYGSGVHHYFYYGLDVWGQGTTVTVSS
VL: not shown
notes: Fully human antibody (gamma heavy chain, kappa light chain) from hybridomas of KM transgenic mice, purified; The light chain entry runs a few residues into the kappa constant region; also called MC-18F1; IMC-18F1
[1]
  EC50 (read off the curve): ~3 ng/mL
[2]
  VEGF-A and P1GF stimulated proliferation of DU4475 breast carcinoma cells (estimated IC50): 30 to 50 nM
[3]
  EC50: 0.1 nM
[4]
  IC50: 0.84 nM
[5]
  Inhibition of PlGF-induced DU4475 cell growth in vitro (IC50): 24 nM
Mouse VEGFR-1-AP
  binding result: no binding (tested: 1 µg/mL)
[6]
  IC50: 0.55 nM
[7]
  Kd: 0.054 nM
  kon: 810000 M⁻¹ s⁻¹
Mouse VEGFR-2 Fc
  binding result: no binding (tested: 1 µg/ml)
